Values belong to the binder of their own block, whether it stands above or below them. Bridge positions count the residues as written; N and C are the ends. Ends that are not written are not given here.
What was measured:
soluble human FcRn [1] = target: T1, soluble human FcRn (human, UniProt P55899 24-297; P61769 21-119, biotinylated (Sulfo-NHS-LC-Biotin) in the ELISA; amine-coupled to CM5 chip in SPR); assay: SPR, pH 6
T1 construct: also called shFcRn; biotinylated shFcRn
Procedure: (§1) The following steps were performed to cross-link soluble human or cynomolgus FcRn to the dextran surface of a CM5 sensor chip (Biacore AB, Uppsala, Sweden) by an amine coupling reaction involving 1-ethyl-(3-dimethylaminopropyl)-carbodiimide hydrochloride (EDC) (Biacore AB, Uppsala, Sweden) and N-hydroxysuccinimide (NHS) (Biacore AB, Uppsala, Sweden) as recommended by Biacore (BIAapplications Handbook, version AB, section 4.2, Biacore AB, Uppsala, Sweden). […] Residual sites on the FcRn flow cell were blocked with 1 M ethanolamine hydrochloride pH 8.5 (Biacore AB, Uppsala, Sweden). A control flow cell was blocked with ethanolamine for reference subtraction. For analysis of the monomeric peptides, FcRn was coated to a final density of 4000-5000 response units (RU). For analysis of the peptide dimers, FcRn was coated to a density of 2000-2500 RU. All SPR measurements were performed using a BIACORE 3000 Instrument (Biacore AB Uppsala, Sweden). For measurements done at either pH 6 or pH 7.4, experiments were performed in 50 mM phosphate, 100 mM sodium chloride, 0.01% surfactant P20 (Biacore AB, Uppsala, Sweden).
(§2) Ten, 2-fold dilutions of the peptide were injected over the FcRn-CM5 chip at a rate of 20 μl/min for 2 min. The peptide was dissociated from the chip for 2.5 minutes with buffer. Any remaining peptide was removed from the chip with a 30 second injection of HBS-P buffer (Biacore AB, Uppsala, Sweden) at a rate of 30 μl/min. Sensorgrams were generated and analyzed using BiaEval software version 3.1 (Biacore AB, Uppsala, Sweden). The equilibrium RU observed for each injection was plotted against concentration. The equilibrium KD values were derived by analysis of the plots using the steady state affinity model included in the BiaEval software.

soluble human FcRn [2] = target: T1, soluble human FcRn; assay: SPR, pH 6; remark: listed apart in the source
Procedure: as §1, §2

soluble human FcRn [3] = target: T1, soluble human FcRn; assay: SPR, pH 6; remark: listed apart in the source
Procedure: as §1, §2

soluble human FcRn [4] = target: T1, soluble human FcRn; assay: SPR, pH 7.4
Procedure: as §1, §2

soluble human FcRn [5] = target: T1, soluble human FcRn; assay: SPR, pH 6; remark: listed apart in the source
Procedure: as §1, §2

soluble human FcRn [6] = target: T1, soluble human FcRn; assay: SPR, pH 6; remark: listed apart in the source
Procedure: as §1, §2

soluble human FcRn [7] = target: T1, soluble human FcRn; assay: SPR, pH 6; remark: listed apart in the source
Procedure: as §1, §2

soluble human FcRn [8] = target: T1, soluble human FcRn; assay: SPR, pH 7.4; remark: listed apart in the source
Procedure: as §1, §2

soluble human FcRn [9] = target: T1, soluble human FcRn; assay: SPR, pH 7.4; remark: listed apart in the source
Procedure: as §1
(§3) Ten, 2-fold dilutions of the peptide were injected over the FcRn-CM5 chip at a rate of 20 μl/min for 2 min. The peptide was dissociated from the chip for 2.5 minutes with buffer. […] Sensorgrams were generated and analyzed using BiaEval software version 3.1 (Biacore AB, Uppsala, Sweden). […]

soluble human FcRn [10] = target: T1, soluble human FcRn; assay: SPR, pH 6; remark: listed apart in the source
Procedure: as §1, §3

soluble human FcRn [11] = target: T1, soluble human FcRn; assay: SPR, pH 7.4; remark: listed apart in the source
Procedure: as §1, §2

soluble human FcRn [12] = target: T1, soluble human FcRn; assay: SPR, pH 7.4; remark: listed apart in the source
Procedure: as §1, §3

soluble human FcRn [13] = target: T1, soluble human FcRn; assay: SPR, pH 7.4; remark: listed apart in the source
Procedure: as §1, §2

soluble human FcRn [14] = target: T1, soluble human FcRn; assay: SPR, pH 6; remark: listed apart in the source
Procedure: as §1, §2

soluble human FcRn [15] = target: T1, soluble human FcRn; assay: SPR, pH 7.4; remark: listed apart in the source
Procedure: as §1, §2

soluble human FcRn [16] = target: T1, soluble human FcRn; assay: SPR, pH 7.4; remark: listed apart in the source
Procedure: as §1, §3

soluble human FcRn [17] = target: T1, soluble human FcRn; assay: SPR, pH 6; remark: listed apart in the source
Procedure: as §1, §2

soluble human FcRn [18] = target: T1, soluble human FcRn; assay: ELISA, competitor human IgG
Procedure: (§4) The wells were coated with 100 μl/well of 1 μg/ml biotinylated-shFcRn in Buffer A. The plate was sealed and incubated at 37° C. for 2 hours. Afterwards, the plate washed with 200 μl/well of Buffer B (Buffer B: 100 mM MES pH 6, 150 mM NaCl, 0.5% BSA IgG-free (Jackson ImmunoResearch, West Grove, Pa.), 0.05% Tween-20). […] To allow for mixing, the plate was rocked for 2 minutes, sealed and incubated at 37° C. for 2 hours. […] The plate was covered, incubated for 30 minutes at room temperature and washed 4 times with 200 μl/well of ice-cold buffer B. SureBlue TMB substrate solution (100 μl/well, KPL, Gaithersburg, Md.) was added and the plate was allowed to incubate at room temperature until color developed, which took 5 to 10 minutes. Once color developed, 100 μl/well of TMB stop solution (KPL, Gaithersburg, Md.) was added and the absorbance was measured at 450 nm. The data was plotted as absorbance vs. peptide concentration to derive the inhibitory concentration 50% (IC₅₀) values.

soluble human FcRn [19] = target: T1, soluble human FcRn; assay: ELISA, competitor human IgG; remark: listed apart in the source
Procedure: as §4

soluble human FcRn [20] = target: T1, soluble human FcRn; assay: ELISA, competitor human IgG; remark: listed apart in the source
Procedure: as §4

soluble human FcRn [21] = target: T1, soluble human FcRn; assay: SPR, pH 6; remark: listed apart in the source
Procedure: as §1, §3

soluble human FcRn [22] = target: T1, soluble human FcRn; assay: SPR, pH 6; remark: listed apart in the source
Procedure: as §1, §2

soluble human FcRn [23] = target: T1, soluble human FcRn; assay: SPR, pH 6; remark: listed apart in the source
Procedure: as §1, §3

soluble human FcRn [24] = target: T1, soluble human FcRn; assay: ELISA, competitor human IgG; remark: listed apart in the source
Procedure: as §4

soluble human FcRn [25] = target: T1, soluble human FcRn; assay: ELISA, competitor human IgG; remark: listed apart in the source
Procedure: as §4

soluble human FcRn [26] = target: T1, soluble human FcRn; assay: SPR, pH 6; remark: listed apart in the source
Procedure: as §1, §3

soluble human FcRn [27] = target: T1, soluble human FcRn; assay: SPR, pH 6; remark: listed apart in the source
Procedure: as §1, §2

soluble human FcRn [28] = target: T1, soluble human FcRn; assay: SPR, pH 6; remark: listed apart in the source
Procedure: as §1, §2

soluble human FcRn [29] = target: T1, soluble human FcRn; assay: ELISA, competitor human IgG; remark: listed apart in the source
Procedure: as §4

soluble human FcRn [30] = target: T1, soluble human FcRn; assay: ELISA, competitor human IgG; remark: listed apart in the source
Procedure: as §4

soluble human FcRn [31] = target: T1, soluble human FcRn; assay: ELISA, competitor human IgG; remark: listed apart in the source
Procedure: as §4

soluble human FcRn [32] = target: T1, soluble human FcRn; assay: ELISA, competitor human IgG; remark: listed apart in the source
Procedure: as §4

soluble human FcRn [33] = target: T1, soluble human FcRn; assay: ELISA, competitor human IgG; remark: listed apart in the source
Procedure: as §4

soluble human FcRn [34] = target: T1, soluble human FcRn; assay: ELISA, competitor human IgG; remark: listed apart in the source
Procedure: as §4

soluble human FcRn [35] = target: T1, soluble human FcRn; assay: assay not named for Table 26, taken as the IgG competition ELISA

Kd (soluble human FcRn [1]): 5100 nM
Kd (soluble human FcRn [2]): 5100 nM
Kd (soluble human FcRn [3]): 5100 nM
Kd (soluble human FcRn [4]): 30000 nM
Kd (soluble human FcRn [5]): 5100 nM
Kd (soluble human FcRn [6]): 5100 nM
Kd (soluble human FcRn [7]): 5100 nM
Kd (soluble human FcRn [8]): 30000 nM
Kd (soluble human FcRn [9]): 30000 nM
Kd (soluble human FcRn [10]): 5100 nM
Kd (soluble human FcRn [11]): 30000 nM
Kd (soluble human FcRn [12]): 30000 nM
Kd (soluble human FcRn [13]): 30000 nM
Kd (soluble human FcRn [14]): 5100 nM
Kd (soluble human FcRn [15]): 30000 nM
Kd (soluble human FcRn [16]): 30000 nM
B1: SEQ ID NO:1 (peptide)
peptide: QRFCTGHFGGLYPCNGP-NH2
modifications: disulfide 4-14 (inferred)

Kd (soluble human FcRn [17]): 250 nM
Kd (soluble human FcRn [2]): 250 nM
IC50 (soluble human FcRn [18]): 2000 nM
IC50 (soluble human FcRn [19]): 2000 nM
IC50 (soluble human FcRn [20]): 2000 nM
Kd (soluble human FcRn [21]): 250 nM
Kd (soluble human FcRn [22]): 250 nM
Kd (soluble human FcRn [23]): 250 nM
IC50 (soluble human FcRn [24]): 2000 nM
IC50 (soluble human FcRn [25]): 2000 nM
Kd (soluble human FcRn [6]): 250 nM
Kd (soluble human FcRn [7]): 250 nM
Kd (soluble human FcRn [26]): 250 nM
Kd (soluble human FcRn [27]): 250 nM
Kd (soluble human FcRn [28]): 250 nM
IC50 (soluble human FcRn [29]): 2000 nM
IC50 (soluble human FcRn [30]): 2000 nM
IC50 (soluble human FcRn [31]): 2000 nM
IC50 (soluble human FcRn [32]): 2000 nM
IC50 (soluble human FcRn [33]): 2000 nM
IC50 (soluble human FcRn [34]): 2000 nM
Kd (soluble human FcRn [14]): 250 nM
B2: Peptide No. 32 (peptide)
peptide: QRFXTGHFGGLYPCNGP
modifications: Pen (L-penicillamine) at 4; disulfide; C-terminal amide

IC50 (soluble human FcRn [35]): 18 nM
B3: Peptide No. 289 (peptide)
peptide: RFXTGHFGGLYPC
modifications: not fully specified; Pen at 3; Sar at 9; NMeLeu at 10; intrachain disulfide; C-terminal amide; N-termini joined by an Asp linker that carries PEG 30 kDa
notes: structure only as drawing CHEM-US-00138; also called Pegylated Analog of Peptide No. 285
